These results are taken from article PMC8461249.

Test [1] concerns the target TβRII-SE/Fc (TβRII-Soluble Endogenous fused to the human IgG1 Fc domain) (human). Nature of the test: SPR; Biacore 3000, CM5 chip with anti-human Fc mixed with anti-mouse Fc antibodies; TβRII-SE/Fc or TβRII-Fc captured to 100–140 RU; TGF-β1, -β2 or -β3 injected at 0.4 to 30 nM, 50 μl/min, association 90 s, dissociation 300 s (900 s for slow rates); 0.1% surfactant; double referencing; 1:1 binding model; stoichiometry from Rmax and mass ratios.

Test [2] concerns the target TβRII-Fc (TβRII extracellular domain fused to human IgG1 Fc) (human) (UniProt P37173). Described as above.

Chain of TβRII-Fc (TβRII extracellular domain fused to human IgG1 Fc) (human) (P37173 23-166): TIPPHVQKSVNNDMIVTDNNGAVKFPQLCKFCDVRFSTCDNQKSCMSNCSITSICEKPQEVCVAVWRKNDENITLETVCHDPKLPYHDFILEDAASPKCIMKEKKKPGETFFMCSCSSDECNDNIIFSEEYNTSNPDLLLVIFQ

As to TGF-β1 (ligand), the stoichiometry N (TGF-β dimer per bivalent Fc ligand) in test [1] and in test [2] was 1 in each case. For TGF-β2 (ligand), the stoichiometry N (TGF-β dimer per bivalent Fc ligand) in test [1] and in test [2] was 1 throughout. Consider TGF-β3 (ligand), for which the stoichiometry N (TGF-β dimer per bivalent Fc ligand) in test [1] amounted to 1.
